Reference: article PMC9785946, “Bioorthogonal Chemistry Approach for the Theranostics of GRPR-Expressing Cancers” (Pharmaceutics, 2022)
Values joined by “and” are separate entries in the source; they are usually repeats but may differ in a detail not shown here. Equal entries are not always repeated. Where two headings read alike, the source gives them in different places.

Key:
PC3 cells = assay: Cellular uptake, internalization and blocking assays in PC3 cells; format: cell-based, human; conditions: 37 °C
Procedure: The time-dependent accumulation of ^111In-conjugates in PC3 cells was evaluated according to a previously described procedure. Briefly, PC3 cells were incubated at 37 °C for 5 min to 4 h with about 7.4 kBq of the tested radioconjugates. To assess the surface binding, the cells were treated twice with glycine buffer (50 mM glycine-HCl/100 mM NaCl, pH 2.8). Then, the cells were lysed with NaOH 1 M (internalized radioconjugate). The activity in both cell surface-bound and internalized fractions was measured in a γ-counter and reported as a percentage of the total applied radioactivity. The total cellular uptake was calculated by the addition of the activities recovered from the surface binding and internalized fractions. Assays for each time point were performed in quadruplicate, and data were presented as average ± SD of typically three independent experiments.
To assess the specific GRPR-mediated cellular uptake and internalization of radioconjugates (receptor blocking studies), a similar study was performed in which cells were incubated with the [^111In]In-DOTA-Tz-TCO-PEG4-AR for 1, 2 and 4 h, with or without the GRPR agonist Tyr4-Bombesin (0.25 µg/0.5 mL/well).

[1] = Procedure: The octanol–water partition coefficients (Po/w) of the radioconjugates (20 µL, typically 1 to 5 MBq) were determined by the “shake-flask” method, as previously described.
[2] = test system: PC3 xenografts-bearing mice; assay: Biodistribution of 111In-radioconjugates/radiocomplex in PC3 xenografts-bearing mice; format: in vivo, Balb/c-male nude mice
Excerpt: (§1) Blood samples were taken by cardiac puncture at sacrifice.

[3] = as above; format: in vivo, Balb/c-male nude mice; conditions: male, Balb/c nude, mouse, iv, total radioactivity; for tissue uptake at […]: 15 min p.i.
Excerpt: as §1

[4] = 15 min p.i., listed as [111In]In-DOTA-Tz-TCO-PEG4-AR
[5] = 1 h p.i., blocking (excess of agonist)
[6] = 15 min p.i., listed as [111In]In-DOTA-Tz
[7] = 1 h p.i., listed as [111In]In-DOTA-Tz

In the case of `CC(C)C[C@H](NC(=O)C[C@H](O)[C@H](CC(C)C)NC(=O)[C@H](Cc1c[nH]cn1)NC(=O)CNC(=O)[C@@H](NC(=O)[C@H](C)NC(=O)[C@H](Cc1c[nH]c2ccccc12)NC(=O)[C@H](CCC(N)=O)NC(=O)[C@@H](Cc1ccccc1)NC(=O)CCOCCOCCOCCOCCNC(=O)OC1CCCc2c(cnnc2-c2ccc(CNC(=O)CN3CCN(CC(=O)O)CCN(CC(=O)O)CCN(CC(=O)O)CC3)cc2)CC1)C(C)C)C(N)=O` (stereo partly shown) [[^111In]In-DOTA-Tz-TCO-PEG4-AR, metal not drawn], the “Distribution of cell-associated activity (surface-bound vs internalized)” value (PC3 cells) is reported as “mainly bound to the cell membrane”, the Cellular uptake (PC3 cells; start of the assay) is reported as 17 % of the total activity applied per million cells and the logP [1] is reported as -1.2 ± 0.04. The Blood uptake ([2]; 15 min p.i.) was 6. 7 % I.D./g, the Bone uptake ([2]; 15 min p.i.) was 7. 2 % I.D./g and the Excretion ([2]; 15 min p.i.) was 17. % I.D. The Heart uptake ([2]; 15 min p.i.) was 5. 4 % I.D./g, the Intestine uptake ([2]; 15 min p.i.) was 3. 6 % I.D./g and the Lungs uptake ([2]; 15 min p.i.) was 9. 6 % I.D./g. For the same compound, the Muscle uptake ([2]; 15 min p.i.) was 3. 8 % I.D./g, the Pancreas uptake ([2]; 15 min p.i.) was 25.2 ± 3 % I.D./g and 25.2 ± 0.2 % I.D./g and the Spleen uptake ([2]; 15 min p.i.) was 3. 6 % I.D./g. The Stomach uptake ([2]; 15 min p.i.) was 10. 6 % I.D./g, the Tumor uptake ([2]; 15 min p.i.) was 8.4 ± 0.5 % I.D./g and the Kidneys uptake [2, 4] was 15. 4 % I.D./g. The Pancreas uptake [2, 4] was 25. 2 % I.D./g, the Tumor uptake [2, 4] was 8. 4 % I.D./g and the Blood uptake ([2]; 1 h p.i.) was 2. 62 % I.D./g. The Bone uptake ([2]; 1 h p.i.) was 0. 85 % I.D./g, the Liver uptake ([2]; 1 h p.i.) was 1. 15 % I.D./g and the Pancreas uptake ([2]; 1 h p.i.) was 13.9 ± 1.6 % I.D./g. For the same compound, the Spleen uptake ([2]; 1 h p.i.) was 1. 32 % I.D./g, the Tumor uptake ([2]; 1 h p.i.) was 9.6 ± 1.7 % I.D./g and the Blood uptake [2, 5] was 3. 08 % I.D./g. For the same compound, the Bone uptake [2, 5] was 1. 395 % I.D./g, the Excretion [2, 5] was 51. % I.D and the Heart uptake [2, 5] was 1. 11 % I.D./g. For the same compound, the Intestine uptake [2, 5] was 0. 995 % I.D./g, the Kidneys uptake [2, 5] was 8. 435 % I.D./g and the Liver uptake [2, 5] was 1. 63 % I.D./g. The Lungs uptake [2, 5] was 2. 135 % I.D./g, the Muscle uptake [2, 5] was 1. 755 % I.D./g and the Pancreas uptake [2, 5] was 1. 685 % I.D./g. For the same compound, the Spleen uptake [2, 5] was 0. 83 % I.D./g, the Stomach uptake [2, 5] was 1. 16 % I.D./g and the Tumor uptake [2, 5] was 4. 445 % I.D./g. The Pancreas uptake ([2]; 1 h p.i., listed as [111In]In-DOTA-Tz-TCO-PEG4-AR) was 13. 875 % I.D./g, the Blood uptake ([2]; 2 h p.i.) was 1. 7 % I.D./g and the Bone uptake ([2]; 2 h p.i.) was 0. 7 % I.D./g. The Excretion ([2]; 2 h p.i.) was 84. % I.D, the Heart uptake ([2]; 2 h p.i.) was 0. 5 % I.D./g and the Intestine uptake ([2]; 2 h p.i.) was 1. 1 % I.D./g. For the same compound, the Kidneys uptake ([2]; 2 h p.i.) was 5. 4 % I.D./g, the Liver uptake ([2]; 2 h p.i.) was 1. 7 % I.D./g and the Lungs uptake ([2]; 2 h p.i.) was 1. 1 % I.D./g. The Muscle uptake ([2]; 2 h p.i.) was 0. 6 % I.D./g, the Pancreas uptake ([2]; 2 h p.i.) was 11 ± 2.5 % I.D./g and the Spleen uptake ([2]; 2 h p.i.) was 0. 6 % I.D./g. For the same compound, the Stomach uptake ([2]; 2 h p.i.) was 2. 1 % I.D./g, the Tumor uptake ([2]; 2 h p.i.) was 13.1 ± 1.7 % I.D./g and the Tumor uptake ([2]; 2 h p.i., listed as [111In]In-DOTA-Tz-TCO-PEG4-AR) was 13. 1 % I.D./g. The Blood uptake ([2]; 24 h p.i.) was 0. 16 % I.D./g, the Bone uptake ([2]; 24 h p.i.) was 0. 038 % I.D./g and the Excretion ([2]; 24 h p.i.) was 96. % I.D. For the same compound, the Heart uptake ([2]; 24 h p.i.) was 0. 065 % I.D./g, the Intestine uptake ([2]; 24 h p.i.) was 0. 12 % I.D./g and the Kidneys uptake ([2]; 24 h p.i.) was 1. 17 % I.D./g. The Liver uptake ([2]; 24 h p.i.) was 0. 21 % I.D./g, the Lungs uptake ([2]; 24 h p.i.) was 0. 12 % I.D./g and the Muscle uptake ([2]; 24 h p.i.) was 0. 034 % I.D./g. The Pancreas uptake ([2]; 24 h p.i.) was 0. 14 % I.D./g, the Spleen uptake ([2]; 24 h p.i.) was 0. 065 % I.D./g and the Stomach uptake ([2]; 24 h p.i.) was 0. 09 % I.D./g. The Tumor uptake ([2]; 24 h p.i.) was 0. 76 % I.D./g, the tissue uptake at 1 h ([3]; heart, 1 h p.i., read-out: Heart uptake) was 0.815 %ID/g and the dose excreted at 1 h ([3]; in vivo, 1 h p.i., read-out: Excretion) was 74.8%. For the same compound, the dose excreted at 24 h ([3]; in vivo, 24 h post-injection, mainly through the renal system, read-out: Injected activity excreted) was 97%, the tissue uptake at 1 h ([3]; intestine, 1 h p.i., read-out: Intestine uptake) was 1.85 %ID/g and the tissue uptake at […] ([3]; kidneys, read-out: Kidneys uptake) was 15.4 ± 6.2 %ID/g. It also gave a tissue uptake at 1 h ([3]; kidneys, 1 h p.i., read-out: Kidneys uptake) of 5.33 %ID/g, a tissue uptake at […] ([3]; liver, read-out: Liver uptake) of 6 %ID/g and a tissue uptake at 1 h ([3]; lungs, 1 h p.i., read-out: Lungs uptake) of 1.61 %ID/g. The tissue uptake at 1 h ([3]; muscle, 1 h p.i., read-out: Muscle uptake) was 0.875 %ID/g, the tissue uptake at 2 h ([3]; pancreas, 2 h p.i.) was 11 %ID/g and the tissue uptake at 1 h ([3]; pancreas, with excess of agonist (receptor blocking), 1 h p.i., blocking (excess of agonist), read-out: Pancreas uptake) was 1.6 ± 0.6 %ID/g. It also gave a tissue uptake at 1 h ([3]; stomach, 1 h p.i., read-out: Stomach uptake) of 2.62 %ID/g, a tissue uptake at 1 h ([3]; tumor (PC3 xenograft), 1 h p.i., read-out: Tumor uptake) of 9.57 %ID/g and a tissue uptake at 1 h ([3]; tumor (PC3 xenograft), with excess of agonist (receptor blocking), 1 h p.i., blocking (excess of agonist), read-out: Tumor uptake) of 4.4 ± 2 %ID/g.
With `O=C([O-])CN1CCN(CC(=O)[O-])CCN(CC(=O)NCc2ccc(-c3nncnn3)cc2)CCN(CC(=O)[O-])CC1.[111In+3]` [[^111In]In-DOTA-Tz] the Blood uptake ([2]; 15 min p.i.) was 2. 7 % I.D./g, the Bone uptake ([2]; 15 min p.i.) was 0. 8 % I.D./g and the Excretion ([2]; 15 min p.i.) was 61. % I.D. For the same compound, the Heart uptake ([2]; 15 min p.i.) was 0. 9 % I.D./g, the Intestine uptake ([2]; 15 min p.i.) was 0. 4 % I.D./g and the Kidneys uptake ([2]; 15 min p.i.) was 4. 4 % I.D./g. The Liver uptake ([2]; 15 min p.i.) was 0. 9 % I.D./g, the Lungs uptake ([2]; 15 min p.i.) was 1. 4 % I.D./g and the Muscle uptake ([2]; 15 min p.i.) was 0. 8 % I.D./g. For the same compound, the Pancreas uptake ([2]; 15 min p.i.) was 0.42 ± 0.02 % I.D./g, the Spleen uptake ([2]; 15 min p.i.) was 0. 45 % I.D./g and the Stomach uptake ([2]; 15 min p.i.) was 0. 4 % I.D./g. The Tumor uptake ([2]; 15 min p.i.) was 2.46 ± 0.6 % I.D./g, the Pancreas uptake [2, 6] was 0. 42 % I.D./g and the Tumor uptake [2, 6] was 2. 46 % I.D./g. For the same compound, the Blood uptake ([2]; 1 h p.i.) was 0. 4 % I.D./g, the Bone uptake ([2]; 1 h p.i.) was 0. 2 % I.D./g and the Excretion ([2]; 1 h p.i.) was 88 % I.D. The Heart uptake ([2]; 1 h p.i.) was 0. 17 % I.D./g, the Intestine uptake ([2]; 1 h p.i.) was 0. 29 % I.D./g and the Kidneys uptake ([2]; 1 h p.i.) was 2. 1 % I.D./g. For the same compound, the Liver uptake ([2]; 1 h p.i.) was 0. 4 % I.D./g, the Lungs uptake ([2]; 1 h p.i.) was 0. 38 % I.D./g and the Muscle uptake ([2]; 1 h p.i.) was 0. 1 % I.D./g. The Pancreas uptake ([2]; 1 h p.i.) was 0.09 ± 0.06 % I.D./g, the Spleen uptake ([2]; 1 h p.i.) was 0. 14 % I.D./g and the Stomach uptake ([2]; 1 h p.i.) was 0. 17 % I.D./g. For the same compound, the Tumor uptake ([2]; 1 h p.i.) was 0.5 ± 0.2 % I.D./g, the Pancreas uptake [2, 7] was 0. 09 % I.D./g and the Tumor uptake [2, 7] was 0. 5 % I.D./g. For the same compound, the Blood uptake ([2]; 24 h p.i.) was 0. 03 % I.D./g, the Bone uptake ([2]; 24 h p.i.) was 0. 04 % I.D./g and the Excretion ([2]; 24 h p.i.) was 97. % I.D. The Heart uptake ([2]; 24 h p.i.) was 0. 02 % I.D./g, the Intestine uptake ([2]; 24 h p.i.) was 0. 09 % I.D./g and the Kidneys uptake ([2]; 24 h p.i.) was 0. 87 % I.D./g. For the same compound, the Liver uptake ([2]; 24 h p.i.) was 0. 12 % I.D./g, the Lungs uptake ([2]; 24 h p.i.) was 0. 07 % I.D./g and the Muscle uptake ([2]; 24 h p.i.) was 0. 021 % I.D./g. For the same compound, the Pancreas uptake ([2]; 24 h p.i.) was 0. 03 % I.D./g, the Spleen uptake ([2]; 24 h p.i.) was 0. 08 % I.D./g and the Stomach uptake ([2]; 24 h p.i.) was 0. 03 % I.D./g. The Tumor uptake ([2]; 24 h p.i.) was 0. 13 % I.D./g.
In the case of `CC(C)C[C@H](NC(=O)C[C@H](O)[C@H](CC(C)C)NC(=O)[C@H](Cc1c[nH]cn1)NC(=O)CNC(=O)[C@@H](NC(=O)[C@H](C)NC(=O)[C@H](Cc1c[nH]c2ccccc12)NC(=O)[C@H](CCC(N)=O)NC(=O)[C@@H](Cc1ccccc1)NC(=O)CN1CCC(NC(=O)OC2CCCc3c(cnnc3-c3ccc(CNC(=O)CCC(C(=O)O)N4CCN(CC(=O)O)CCN(CC(=O)O)CCN(CC(=O)O)CC4)cc3)CC2)CC1)C(C)C)C(N)=O` (stereo partly shown) [[^111In]In-DOTAGA-Tz-TCO-Pip-AR, metal not drawn], the “Distribution of cell-associated activity (surface-bound vs internalized)” value (PC3 cells) is reported as “almost all cell-associated activity corresponded to the membrane-bound fraction”, the Maximum cellular uptake (PC3 cells; 5 min to 4 h) is reported as “around 10 % of the total activity applied per million cells” and the logP [1] is reported as -0.9.
